From paper PMC8689207

Biological target: far-red light-acclimated photosystem I (FRL-PSI) complex of Synechococcus sp. PCC 7335, trimeric (Synechococcus sp. PCC 7335 (endogenous in Synechococcus 7335 cells))
Test: cryo-EM structure; trimeric FRL-PSI isolated whole from FRL-grown Synechococcus 7335 cells (1% β-DM, two sucrose gradients, PIB: 50 mM MES pH 6.5, 15 mM CaCl2, 10 mM MgCl2); Fd not added; ~3 mg Chl/ml, plunge-frozen at 4 °C; C3 symmetry, 2.91 Å

Substance	stoichiometry N	occupancy [%]
far-red light-acclimated photosystem I (FRL-PSI) complex of Synechococcus sp. PCC 7335, trimeric	3	
ferredoxin PetF1 (soluble [2Fe-2S] ferredoxin) of Synechococcus sp. PCC 7335 (natural protein)		10
